Experimental findings from patent US20260062488A1 are described below.

Assay [1] has as its target human α4β7 integrin (human) (UniProt P13612). Nature of the assay: blockade of HuT78 adhesion to coated VCAM-1 hFc, average N = 3.
Assay [2] has the same target. The experiment in a line: blockade of HuT78 adhesion to coated VCAM-1 hFc, experiment 1.
Assay [3] has the same target. Nature of the assay: blockade of HuT78 adhesion to coated VCAM-1 hFc, experiment 3.
Assay [4] shares this target. Nature of the assay: blockade of HuT78 adhesion to coated VCAM-1 hFc, experiment 2.
The target in assay [5] is cynomolgus αEβ7 integrin (cynomolgus monkey). The experiment in a line: FACS, 1 µg/ml, BaF3-cαEβ7 cells. (In general: In flow cytometry, cells or beads pass a laser one at a time.)
For assay [6], the target named is mouse α4β7 integrin (mouse) (UniProt Q00651). Nature of the assay: FACS, 1 µg/ml, CHOK1-mα4β7 cells.
The target of assay [7] is human α4β7 integrin (human) (UniProt P13612). The experiment in a line: FACS, 1 µg/ml, BaF3-hα4β7 cells.
For assay [8] the target is unchanged. Nature of the assay: competitive FACS, 50x excess of non-labelled competitor Ab-m1.
For assay [9] the target is unchanged. Nature of the assay: row IC50 (pM) HuT78 of the binning table (assay not explained, presumably adhesion to MAdCAM-1).
For assay [10] the target is unchanged. Nature of the assay: competitive FACS, 50x excess of non-labelled competitor Ab-Vedo.
Assay [11] addresses cynomolgus α4β7 integrin (cynomolgus monkey). The experiment in a line: blockade of CHOK1/cα4β7 adhesion to MAdCAM-1.
For assay [12], the target named is human α4β1 integrin (human) (UniProt P05556). Nature of the assay: FACS, 1 µg/ml, CHOK1-hα4β1 cells.
For assay [13], the target named is human α4β7 integrin (human) (UniProt P13612). Nature of the assay: competitive FACS, 50x excess of non-labelled competitor Ab-Etro.
For assay [14], the target named is cynomolgus α4β7 integrin (cynomolgus monkey). Nature of the assay: blockade of CHOK1-cα4β7 cell adhesion to MAdCAM-1.
The target is the same in assay [15]. The experiment in a line: FACS, 1 µg/ml, CHOK1-cα4β7 cells.
The target in assay [16] is human α4β7 integrin (human) (UniProt P13612). Nature of the assay: blockade of HuT78 cell adhesion to MAdCAM-1.
The target is the same in assay [17]. The experiment in a line: FACS, primary human CD4+ memory T cells.
Assay [18] addresses human αEβ7 integrin (human) (UniProt P38570). The experiment in a line: FACS, 1 µg/ml, BaF3-hαEβ7 cells.
The target in assay [19] is human α4β7 integrin (human) (UniProt P13612). Nature of the assay: competitive FACS, 50x excess of non-labelled competitor Ab-Abri.
Assay [20] shares this target. Nature of the assay: FACS titration on BaF3-hα4β7.

Sequence of mouse α4β7 integrin (mouse) (Q00651 41-1039, chain 1 of 2): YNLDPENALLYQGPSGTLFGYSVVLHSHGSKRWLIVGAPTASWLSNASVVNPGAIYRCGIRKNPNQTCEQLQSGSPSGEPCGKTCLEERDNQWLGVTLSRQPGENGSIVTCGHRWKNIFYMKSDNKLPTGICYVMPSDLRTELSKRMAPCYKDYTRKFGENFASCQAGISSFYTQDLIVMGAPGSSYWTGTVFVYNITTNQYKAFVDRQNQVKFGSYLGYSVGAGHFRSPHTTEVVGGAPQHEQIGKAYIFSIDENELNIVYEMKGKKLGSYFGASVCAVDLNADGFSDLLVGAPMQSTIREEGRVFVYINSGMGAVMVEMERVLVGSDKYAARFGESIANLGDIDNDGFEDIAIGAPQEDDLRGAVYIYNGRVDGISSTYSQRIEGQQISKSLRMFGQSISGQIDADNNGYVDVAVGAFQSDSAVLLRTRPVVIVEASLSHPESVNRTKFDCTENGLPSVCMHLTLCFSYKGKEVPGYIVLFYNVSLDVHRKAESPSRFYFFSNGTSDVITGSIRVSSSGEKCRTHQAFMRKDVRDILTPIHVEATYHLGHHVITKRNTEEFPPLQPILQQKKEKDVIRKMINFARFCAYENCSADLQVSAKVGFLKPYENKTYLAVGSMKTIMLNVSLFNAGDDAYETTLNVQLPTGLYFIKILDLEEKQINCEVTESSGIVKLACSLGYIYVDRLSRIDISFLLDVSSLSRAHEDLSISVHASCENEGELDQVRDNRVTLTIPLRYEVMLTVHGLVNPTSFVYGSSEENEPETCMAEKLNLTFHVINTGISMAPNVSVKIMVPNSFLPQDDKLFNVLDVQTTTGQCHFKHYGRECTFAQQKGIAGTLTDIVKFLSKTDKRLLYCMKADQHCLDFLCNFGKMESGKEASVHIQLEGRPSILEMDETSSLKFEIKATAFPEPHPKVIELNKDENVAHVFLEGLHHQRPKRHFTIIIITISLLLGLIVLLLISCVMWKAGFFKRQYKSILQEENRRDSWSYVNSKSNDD
Sequence of mouse α4β7 integrin (mouse) (P26011 20-806, chain 2 of 2, further chain): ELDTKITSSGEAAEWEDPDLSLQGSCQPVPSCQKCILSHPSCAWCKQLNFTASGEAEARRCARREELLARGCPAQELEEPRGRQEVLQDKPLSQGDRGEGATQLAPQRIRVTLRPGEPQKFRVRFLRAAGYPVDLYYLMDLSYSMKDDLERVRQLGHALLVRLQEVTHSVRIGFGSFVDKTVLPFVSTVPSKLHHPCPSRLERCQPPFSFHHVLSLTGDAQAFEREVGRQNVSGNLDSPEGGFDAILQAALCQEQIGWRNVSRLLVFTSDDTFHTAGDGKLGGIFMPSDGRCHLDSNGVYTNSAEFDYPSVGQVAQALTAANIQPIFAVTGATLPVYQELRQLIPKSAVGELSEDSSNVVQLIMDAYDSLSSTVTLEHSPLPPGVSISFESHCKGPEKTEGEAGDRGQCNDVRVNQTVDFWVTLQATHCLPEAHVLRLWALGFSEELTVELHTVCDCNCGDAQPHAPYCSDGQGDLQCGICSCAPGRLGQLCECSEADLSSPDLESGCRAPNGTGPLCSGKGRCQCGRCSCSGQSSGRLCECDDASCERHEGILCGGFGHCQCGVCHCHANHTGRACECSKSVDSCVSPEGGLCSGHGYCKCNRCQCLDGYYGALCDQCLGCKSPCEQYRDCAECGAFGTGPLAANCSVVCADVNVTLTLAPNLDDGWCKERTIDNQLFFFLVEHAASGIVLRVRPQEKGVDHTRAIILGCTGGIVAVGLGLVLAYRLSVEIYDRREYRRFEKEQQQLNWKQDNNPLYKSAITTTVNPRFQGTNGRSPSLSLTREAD

B1: Ab-Nata (antibody, INN chains, looked up, V domains shown)
VH: QVQLVQSGAEVKKPGASVKVSCKASGFNIKDTYIHWVRQAPGQRLEWMGRIDPANGYTKYDPKFQGRVTITADTSASTAYMELSSLRSEDTAVYYCAREGYYGNYGVYAMDYWGQGTLVTVSS
VL: DIQMTQSPSSLSASVGDRVTITCKTSQDINKYMAWYQQTPGKAPRLLIHYTSALQPGIPSRFSGSGSGRDYTFTISSLQPEDIATYYCLQYDNLWTFGQGTKVEIKR
Turning to B1, the 50% inhibitory concentration (IC50) in assay [1] was 0.056 nM; in [2], 0.038 nM; in assay [3] it was 0.077 nM; in assay [4], 0.054 nM.

B2: Ab-Etro (antibody, INN chains, looked up, V domains shown)
VH: EVQLVESGGGLVQPGGSLRLSCAASGFFITNNYWGWVRQAPGKGLEWVGYISYSGSTSYNPSLKSRFTISRDTSKNTFYLQMNSLRAEDTAVYYCARTGSSGYFDFWGQGTLVTVSS
VL: DIQMTQSPSSLSASVGDRVTITCRASESVDDLLHWYQQKPGKAPKLLIKYASQSISGVPSRFSGSGSGTDFTLTISSLQPEDFATYYCQQGNSLPNTFGQGTKVEIK
modifications: IgG1 Alexa488 conjugate
For B2, the FACS MFI stood at 247 MFI in assay [5]; 92.2 MFI in assay [6]; 440 MFI in [7]; 4.53 MFI in [12]; 97.2 MFI in [15]; 73.2 MFI in [18]. For the same molecule, the percentage of binding inhibition in [8] was -1%; in assay [10] it was 6%; in assay [13], 93%; in assay [19], 60%. Also, the IC50 was found to be 0.0178 nM in [9], 0.0499 nM in assay [11], 0.241 nM in [14] and 0.0178 nM in [16]. The Max inhibition (%) came to 91.5% in assay [14] and 104% in [16]. Moreover, the EC50 in assay [17] worked out at 0.0054 nM; in assay [20], 0.705 nM. Besides, the Max MFI in assay [20] was determined as 951 MFI.

B3: Ab-Abri (antibody, INN chains, looked up, V domains shown)
VH: QVQLVQSGAEVKKPGASVKVSCKVSGYTLSDLSIHWVRQAPGKGLEWMGGFDPQDGETIYAQKFQGRVTMTEDTSTDTAYMELSSLKSEDTAVYYCATGSSSSWFDPWGQGTLVTVSS
VL: DIQMTQSPSSVSASVGDRVTITCRASQGISSWLAWYQQKPGKAPKLLIYGASNLESGVPSRFSGSGSGTDFTLTISSLQPEDFANYYCQQANSFPWTFGQGTKVEIK
modifications: IgG2 Alexa488 conjugate
In the case of B3, the FACS MFI in assay [5] amounted to 68.3 MFI; in assay [6] it was 2.87 MFI; in [7], 624 MFI; in assay [12], 4.25 MFI; in assay [15] it was 89.8 MFI; in [18], 9.81 MFI. The percentage of binding inhibition in assay [8] came to 73%; in assay [10] it was 88%; in assay [13] it was 80%; in [19] it was 89%. For the same molecule, the IC50 was 0.0129 nM in assay [9], 0.0509 nM in [11], 0.0994 nM in assay [14] and 0.0129 nM in assay [16]. For the same molecule, the Max inhibition (%) is 95.9% in assay [14] and 103% in [16]. The figures for the EC50 in [17] and in assay [20] were 0.0049 nM and 0.679 nM, respectively. The same molecule came in with a Max MFI in [20] of 775 MFI.

As a reminder, the IC50 is the concentration that gives 50% inhibition. A high value points to weaker potency in that assay. A word on the EC50: it is the concentration giving half of the maximal effect. Read a high EC50 as a need for much substance.
